Results published in IntAct's records for PubMed 18826409.

B1: Regulator of sigma D (Escherichia coli (strain K12)), P0AFX4 (parent)
chain: MLNQLDNLTERVRGSNKLVDRWLHVRKHLLVAYYNLVGIKPGKESYMRLNEKALDDFCQSLVDYLSAGHFSIYERILHKLEGNGQLARAAKIWPQLEANTQQIMDYYDSSLETAIDHDNYLEFQQVLSDIGEALEARFVLEDKLILLVLDAARVKHPA

Variants of: B1
Conditions: with rpod_ecoli rpoD

Row | effect of a mutation on the interaction | Variant
1 | increasing interaction strength | MLNQLDNLTERVRESNKLVDRWLHVRKHLLVAYFNLVGIKPGKESYMRLNEKALDDFCQSLVDYLSAGHFSIYERILHKLEGNGQLARAAKIWPQLEANTQQIMDYYDSSLETAIDHDNYLEFQQVLSDIGEALEARFVLEDKLILLVLDAARVKHPA [G14E;Y34F]
2 | increasing interaction strength | MLNQLDNLTERVRESNKLVDRWLHVRKHLLVAYYNLVGIKPGKESYMRLNEKALDDFCQSLVDYLSAGHFSIYERILHKLEGNGQLARAAKIWPQLEANTQQIMDYYDSSLETAIDHDNYLEFQQVLSDIGEALEARFVLEDKLILLVLDAARVKHPA [G14E]
3 | decreasing interaction strength | MLNQLDNLTERVRGSNKLVDRWLHVRKHLLVAYFNLVGIKPGKESYMRLNEKALDDFCQSLVDYLSAGHFSIYERILHKLEGNGQLARAAKIWPQLEANTQQIMDYYDSSLETAIDHDNYLEFQQVLSDIGEALEARFVLEDKLILLVLDAARVKHPA [Y34F]

Variants of: B1
Conditions: with rpod_ecoli rpoD
Remark: another data set of the same source

Row | effect of a mutation on the interaction | Variant
4 | disrupting interaction strength | MLNQLDNLTERVRGSNKLVDRWLHVRKHLLVAYYNLVGIKPGKESYMRLNEKALDDFCQSLVDYLSAGHFSIYERILHKLEGNGQLARAAKIWPQLEANTQQIMDYYDSSLETAIDHDNYLEFQQVLSDIGEALEARFVLENKLILLVLDAARVKHPA [D142N]
5 | increasing interaction strength | MLNQLDNLTERVRGSNKLVDRWLHVRKHLLVAYFNLVGIKPGKESYMRLNEKALDDFCQSLVDYLSAGHFSIYERILHKLEGNGQLARAAKIWPQLEANTQQIMDYYDSSLETAIDHDNYLEFQQVLSDIGEALEARFVLEDKLILLVLDAARVKHPA [Y34F]
